# Source: the nanobody polyreactivity screen of Harvey et al. (2022)
# Assay: yeast display, Sf9 membrane polyspecificity reagent, FACS + sequencing; frameworks hold sequencing errors
# How it was run: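 A nanobody's polyreactivity label depends on the gate it was sorted from. Yeast display cells were stained with 10% biotinylated, detergent-solubilized Sf9 membrane reagent for 1 hour at 4 °C, enriched on streptavidin microbeads and sorted by FACS. The low and high (top ~1%) gates were set on anti-HA fluorescence for expression and streptavidin fluorescence for reagent binding.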
row,Sequence,polyreactivity (PSR sort gate)
1,QVQLVESGGGLVQGGGSLRLSCAASGSIFPHNAMGWSRQAPGKERELVASITSRGGITYYADSVKGRFTISRDNAKNPLNLQMNSLKPEDTAVYYCAADLYIYPYDYWGQGTQVTVSS,low polyreactivity
2,QVQLVESGGGLVQAGASLRLSCAASGSIFRRNAMGWYRQAPGKERELVAAISYRGGSTNYADSVKGRFTISRDNAKNTVYLQMNSLKPEDTAVYYCAAKIYRSSGQGMDYWGQGTQVTVSS,low polyreactivity
3,QVQLVESGGGLVQAGGSLRLSCAASGRILTPYTMGWYRQAPGKERELVAAISKRGTSTHYADSVKGRFTISRDNAKNTVYLLMNSLKPEDTAVYYCNAVYRSSQYDYWGQGTQVTVSS,high polyreactivity
4,QVHLVESGGGLVQAGGSLRLSCADSGRIFYQYAMGWYRQQPGKESELVARITSGGGTNYADSVKGRFSISRDNAKYTVYLQMNSLKPEDTAVYYCAAGPWYYSYPDYYWGQGTQVTVSS,high polyreactivity
5,QVQLEESGGGLVQAGGRLRLSCAASGSIFDLNAMGRYRQAPGKERELVAAISQRGTRTYYADSVKGRFTISRDNAKNNVYLQMNSLIPEDTAVYYCAVGNGLSRYVYGDYEYWGQGTQVTVSS,high polyreactivity
6,QVHLVESGAGLVQAGGSLRLSCASSGFTFKAYAMGWYRQAPGKERELVAAITKSGGRTFYADSVKGRFTISRDNAKNTVYLQMNSLKPEDTAVYYCAASYTVYYWGQGTKVTVSS,high polyreactivity
7,QVQLVESGGGLVQAGGSLRLSCAASGSTFRQNAMGWYRQAPRKERELVATIRTSGGTTYYADSVKGRFTISRDTAKNTVYLQMNSLKPVDTAVYYCAAVSYLFLYQGYPIAYPMYYWGQGTQVTVSS,low polyreactivity
8,QDQLVESGGGLFKAGGSLRLSCAASGFIFSHYAMGWYRQAPGKERELVADISRSGTSTYYADSVTGRFTISRDNAKNTVYLQMNSLKPEDTAVYYFAKEYFFRGFNYRYDYWGQVTQVTVSS,high polyreactivity
9,QVQLVESGGGLVQAGGSLRLSCAASGRIFRYNAMGWYRQAPGKERELVAAISWSGGSTYYADSVKGRFTISRDNAKNTVYLQMNSLKPEDTAVYYCNARYRYSVTGYDYWGQGTQVTVSS,high polyreactivity
10,QVQLVESGGGLVQAGGSLRLSCAASGRILRYKAMGWYRQAPGKDRELVAAMSSGGSTYADSVKGRFTISRDNAKNTVYLQMNSLKPEDTAVYYCAVQSTRRGPYSWPYGYWGQGTQVTVSS,high polyreactivity
11,QVQLVESGGGLVQAGGSLRLSCAASGITLYLNAMGWYRQAPGKERELVAAITASGGSTYADSVKGRFTISRDNAQNTVYLQMNSLKPEDTAVYYCAADVIYEYYFTFGVGYYEYDYWGQGTQVTVSS,low polyreactivity
12,QVQLVESGGGLVQAGGSLRLSCAASGRILSYYAMGWYRQAPGKERELVATISASGGSTYYADSVKGRFTISRDNAKNTVYLQMNSLKPEDTAVYYCAAARVPAYYLRYFYRTTYDYWGQGTQVTVSS,high polyreactivity
13,QVQHVESGGGLVQAGGSLRLSCAASGRTFPINAMGWYRPAPGKERELVARISRTSGSTYYADSVKGRFTISRDNAKNTVYLQMNSLKPEDTAVYYCAAVRDKYFRASYGYWGQGTQVTVSS,high polyreactivity
14,QVQLVESGGGLVQAGGSLRLSCAASGRTFCVNAMGWSRQAPGKERELVAAITGGGSTYYADSVKGRFTISRDNAKNTVYLQMNSLKPEDTAVYYCNADRRRRSGGFAGWHFQRNDYWGQGTQVTVSS,low polyreactivity
15,QVQLQDSGGGLVQAGGSLRLNCATSGTIFVLWYMGCYRQAPGKERELVATINDGANTYYADSVKGRFTINRDNANSTVYLQMNSLQPEDSAVYYCSVYAIIVWGLGYWGQGTQVTVSS,high polyreactivity
16,QVQLVESGGGLVQAGRSLRLSCAASGTFIGYAMVWYRQAPGKERELVAAIDESGGSTYYADSVKGRFTISRDNAKNTVYLQMNSLKPEDTAVYYCAAYRYYSDYDYWGQGTQVTVSS,low polyreactivity
17,QVQLVESGGGLVQAGGSLRLSCAASGRIFYNNAMGWYRQAPGKERELVAAIDWPGGSTDYADSVKGRFTISRDNAKNTVYLQMNSLKPEDTAVYYCVAGHVPYWHGNSYDYWGQGTQVTVSS,low polyreactivity
18,QVQLVETGGGLVQAGGSLRISCAASGFTISFYAMAWYRHAPGKERELVAAISSGGRTSYADSVKGRFTISRDNAKNTVYLQMNSLTPEATAVYYCAATNRWYYRAAAAVYAFGYWGHGTQVTVSS,high polyreactivity
19,QVQHVESGGGLDQAGGSLRLSCAASGRTFAPYAMGWYRQAPGKEREFVAGITWSSSSTYADSVKGRFTISRDNAKNTVYVQMNSLKPDDPAVYYCAARHAKGGNRHYYWGQGTQVTVSS,high polyreactivity
20,QVQLVESGGALVQAGGSLRLSCAASGFTFRRYAMGWYRQAPGKERELVAAINKSGGSTYYADSVKGRFTISRDKSKNTVYFQMNSLKPEDTAVYYCAARFSYWKTKRAYDWGQGTQVNVSS,high polyreactivity
21,QVQLVESGGGLVQAGGSLRLSCAASGFTFWSYAMGWYRQAPGKERELVAAISRNGGRTYYADSVKGRFTISRDNAKNTVYVQMNSLKPEDTAVYYCATRARNRYTEMDYWGQGTQVTVSS,high polyreactivity
22,QVQLVESGGGLVQAGGSLRLSCAASGRTFTRYAMGWYRQAPGKEREFVAAITTRGGSTYYADSVKGRFTISRDNAKNTVYLQMNSLKPEDTAVYYCAADYYYVQVLYDLGLDYWGQGTQVTVSS,high polyreactivity

row,Sequence,polyreactivity (PSR sort gate)
1,QVQLVESGGGLVQAGGSLRLSCAASGRTLTSYAMGWYRQAPGKERELVARISNGGNTKYADSVNGRFTISRDNAKNTVYLQMNSLKPEDTAVYYCAADYSYYHGPSRHKHDYWGQGTKVTVSS,low polyreactivity
2,QVQLVESGGGLVQAGGSLRLSCAASGIIFKYNAMGWSRQAPGKERELVAAITSGGSTYYADSVKGRFTISRDNAKNTVYLQRNSLKPEDTAVYYCAARYTYVKNFFRRLTAYYYWGQGTQVTVSS,high polyreactivity
3,QVQLVESGGGLVQAGGSLRLSCAASGRTLVLYAMGWYRQAPGKERELVAAITWSGDSTYYADSVKGRFTISRDNAKNTVYLQMNSLKPEDTAVYYCAATYLNAKRGLRYDYWGQDTQVTVSS,low polyreactivity
4,QVQLVESGGGLVQAGGSLRLSCAASGLIFVANAMGWYRQAPGKERELVAAISRSGGITYYADSVKGRFTISRDNAKNTVYLQMNSLKPEDTAVYYCAAELVYFFIYDYWGQGTQVTVSS,low polyreactivity
5,QVQLVESGGGLVQAGGSLRLSCAASGITFGPNAMGWYRQAPGKERELVAAISWRGGSTYYADSVKGRFTISRDNAKNTVYLQMNSLKPEDTAVYYCAKVQIPASYIRYDYWGQGTQVTVSS,low polyreactivity
6,QVQLVESGAGLVEAGASLRLSCAASGSNFRINAMGLYRQAPGKERELVAAITASGGSTYADSVKGRFTISRDNAKNTVYLQMNSLKPEDTAVYDCAARYFPRHRYYFWGQVTQVTVSS,high polyreactivity
7,QVQLVESGGGLVQAGGSLRLSCAASGFIVDWYTRGWYRQAPGKERELVARISSDGSTTYADSVKGRFTISRDNAKNTVSVQMTSLKPEDTAVYYCAADVTYPGLKYIFDDWGQGTQVTVTS,low polyreactivity
8,QVQLVDSGGGLVHAGGSLRLSCHASGRTFRGNAMGWYRQAPGKESELVAAITRRTASTYYADSVKGRFTISRDNAKNTVYLQMNSLKPEDTAVYDCAADSYMKRPYYAGYYYWGQGTQVTVSS,high polyreactivity
9,QVQLVESGGGLVQAGGSLRLSCAASGIIFYHNALGWYRQAPGKERELVASITEIGGSTYYADSVKGRFTISRDNEKNTVYLQMNSLKPEDTAVYYCARDWRNKWFGYWGLGTQVTVSS,low polyreactivity
10,QVQLVESGGGLVQAGGSLRLSCAASGSTFVKYAMGWYRQAPGKERELVAAISWSGGRTYYADSVKGRFTISRDNAKNTVYLQMNSLKPEDTAVYYCAARSWYDRYPYYSWGQGTQVTVSS,high polyreactivity
11,QVQLVESGGGLVQAGGSLRLSCAASGSIFTDNVMGWYRQAPGKERELVAAITYSAASTYYADSVKGRFTISRDNAKNTVYLQMNSLKPEDTAVYYCATEYYIGVNYRGDYWGQGTQVTVSS,low polyreactivity
12,QVQLVESGGGLVQAGGSLRLSSAASGSTFRYYPMGWYRQAPGKERELLARISWRGGSTYYADSVKGRFTISRDNAKNTVYLQMNSLKPEDTAVYYCAAVRWVRYRTSAYEYWGQGTQVTVSS,high polyreactivity
13,QVQLEESGGGLVQSGGSLRLSCAASGSIFYGYTMGWYRQAPGKEMEFVAAITGSGGSTYFADSVKGRFTISRDNAKKTVYLQMNSLKPEDTSVYYCAARRYVNRRYDYWGQGTQVTVSS,high polyreactivity
14,QVQLVESGGGLVQAGCSLRLSCAASGSTFTYYAMGWYRQAPGKERESVAAISSNGGSTSYADSVKGRFTISRDNAKNTVYLQMNSLKPEDTAVYYCAARSKRLAHDYWGQGTQVTVSS,high polyreactivity
15,QVQLVESGGGLVQAGGSLRLSCAASGRILGVNAMGWYRQAPGKERELVAAINWNGGSTYYADSVKGRFTISRDNAKNTVYLQMNSLKPEDTAVYYCAAERSLYYVYSREYWGQGTQVTVSS,low polyreactivity
16,QVQLVESGGGLVQAGGSLRLSCAASGITFFYYAMGWYRQAPGKERELVAAINWSGRTYYADSVKGRFTISRDNAKNTVYLQMNSLKPEDTAVSYCAAVTYGPGVSGMDYWGQGTQVTVSS,low polyreactivity
17,QVQLVESGGGLVQAGGSLRLSCAASGFTFTRYAMGWYRPAPGKERELVAAISSRGGSTNYADSVKGRFTISRDNAKNTVYLQMNSLKPEDTAVYYCAAVYYRLRYEYDYWGQGTQVTVSS,high polyreactivity
18,QVELVESGGGLVQAGGSLSLSCAASGFTFVGNTMGWYRQAPGKEREWGAAIRGRDGRTYYADSVKGRFTISRDKAKNTVYLQMNSLKPEETAVYYCNVDVKYSVRSEIDYWGQRTQVTVSS,low polyreactivity
19,QVQLVESGGGLVEAGGSLRLSCAAYGRTFDYYDMGWYRPAPGKERELVAGITVSSGGTNYADSVKGRFTISRDNAKNTVYLQMNSLNPEDTAVYYCADANYDFYAFDSTYRYNYWGQGTQVTVSS,low polyreactivity
20,QVQLVESGGGLVQAGGSLRLSCAASGSPFRSYAMGWYRQAPGKERELVAAISISGGRTYYADSVKGRFTISRDNAKNTVYLQMNSLKPEDTAVYYCAADRRTDGHDYWGQGTQVTVSS,high polyreactivity
21,QVQLVESGGGLVQAGGSLRLSCAASGRTFTNYAMRWYIPAPGKERELVAAAITVGGGRTYYADSVKGRFTISRENAKNTVYLQMNSLKPEDTAVYYCATDFGTYWYEYWGQGTQVTVSS,high polyreactivity
